These results are taken from US20170145113A1 (Genentech, published 2017).

The target in experiment [1] is T1, His-tagged human HtrA1 protease domain (human, UniProt Q92743 161-367). The experiment in a line: cell-based or functional assay.
The target in experiment [2] is T1, His-tagged human HtrA1 protease domain. The experiment in a line: BIACORE SPR, Fab analyte, Human HtrA1-PD (N=2). In general terms: Surface plasmon resonance follows binding to a sensor surface in real time, without labels.
For experiment [3] the target is unchanged. The experiment in a line: BIACORE T200 SPR; Fab analyte over huHtrA1-PD-His captured by anti-His antibody.
The target is the same in experiment [4]. The experiment in a line: BIACORE SPR analysis, Fab format. Here is the method: (§1) To determine the binding affinity of selected Fab variants for HtrA1, SPR measurement with a BIACORE™ T200 instrument was performed. Briefly, a series S sensor chip CM5 was activated with 1-EDC and NHS reagents according to the supplier's instructions, and anti-His antibody was coupled to achieve 200-300 response units (RU), then following by blocking un-reacted groups with 1 M ethanolamine. For kinetics measurements, approximately 5 nM of huHtrA1-PD-His was first injected at 10 μl/min flow rate to capture approximately 100 RU at 2 different flow cells (FC), except for FC1 (which served as a reference). Next, 5-fold serial dilutions of Fab in HBS-P buffer (0.01M HEPES pH 7.4, 0.15M NaCl, 0.005% surfactant P20) from low (0.8 nM) to high (50 nM) were injected (flow rate: 30 μl/min). The binding responses on HtrA1 were corrected by subtracting of RU from a blank flow cell. The sensorgram was recorded and subject to reference and buffer subtraction before evaluating by BIACORE® T200 Evaluation Software (version 2.0). Association rates (kₒₙ) and dissociation rates (koff) were calculated using a simple one-to-one Langmuir binding model. The equilibrium dissociation constant (KD) was calculated as the ratio of koff/kₒₙ.

Experiment [5] shares this target. The experiment in a line: BIACORE SPR, single-cycle kinetics; Fab analyte over captured human HtrA1.
For experiment [6] the target is unchanged. The experiment in a line: SPR (BIACORE), Fab. From the text: (§2) To address W91 oxidation in HVR-L3, 2 variants (LC-W91Y and LC-W91L) were generated and produced as Fabs for BIACORE™ SPR binding analysis.
(§3) To determine the binding affinity of anti-HtrA1 Fabs by single-cycle kinetics, (SPR) measurement with a BIACORE™ T100 instrument was used. Briefly, a series S sensor chip CM5 was activated with 1-ethyl-3-(3-dimethylamino-propyl)carbodiimide hydrochloride (EDC) and N-hydroxysuccinimide (NHS) reagents according to the supplier's instructions, and streptavidin (Pierce) was coupled to achieve approximately 2500 response units (RU), followed by blocking un-reacted groups with 1 M ethanolamine.
(§4) For kinetics measurements, biotinylated human or murine HtrA1-PD-His was first injected at 10 μl/min flow rate to capture approximately 150 RU at 3 different flow cells (FC), except for FC1 (which served as a reference), and then 5-fold serial dilutions of anti-HtrA1 Fab in HBS-P buffer (0.01M HEPES pH 7.4, 0.15 M NaCl, 0.005% surfactant P20) from low (0.48 nM) to high (300 nM) were injected (flow rate: 30 μl/min) one after the other in the same cycle with no regeneration between injections. The sensorgram was recorded and subject to reference and buffer subtraction before evaluating by BIACORE™ T100 Evaluation Software (version 2.0). Association rates (kₒₙ) and dissociation rates (koff) were calculated using a simple one-to-one Langmuir binding model. The equilibrium dissociation constant (KD) was calculated as the ratio koff/kₒₙ.

The target of experiment [7] is T2, His-tagged recombinant murine HtrA1 protease domain (murine, UniProt Q9R118 156-367).
T2 construct: His-tagged protease domain; also called muHtrA1-PD-His; muHtrA1-PD
The experiment in a line: SPR (BIACORE), Fab.
Excerpt: as §2, §3, §4

Experiment [8] deals with T1, His-tagged human HtrA1 protease domain. The experiment in a line: cell-based or functional assay. The source holds these as a separate data set.
For experiment [9] the target is unchanged. The experiment in a line: BIACORE SPR, single-cycle kinetics; Fab analyte over captured human HtrA1. This is another data set of the same source.
The target is the same in experiment [10]. The experiment in a line: SPR (BIACORE T200), huHtrA1-PD-His captured by anti-His, Fab injected. Here is the method: These combination mutants included both a variant light chain and a variant heavy chain. BIACORE™ kinetic analysis was performed (as described below in Section C) using the combination mutants.
as §1

For experiment [11] the target is unchanged. Described as above. The procedure: as §1
The source holds these as a separate data set.

Experiment [12] shares this target. The experiment in a line: BIACORE SPR, single cycle kinetic analysis; ligand streptavidin-captured biotin human HtrA1, analyte Fab.
Excerpt: as §3, §4

Experiment [13] shares this target. The experiment in a line: SPR (BIACORE), Fab. The source holds these as a separate data set.
For experiment [14] the target is unchanged. The experiment in a line: SPR (BIACORE T100), single-cycle kinetics; biotinylated HtrA1-PD-His on streptavidin, Fab injected.
Excerpt: as §3, §4

The target in experiment [15] is T2, His-tagged recombinant murine HtrA1 …. The description is as above.
Excerpt: as §3, §4

Experiment [16] has the same target. The experiment in a line: BIACORE SPR, single cycle kinetic analysis; ligand streptavidin-captured biotin murine HtrA1, analyte Fab.
Excerpt: as §3, §4

In experiment [17] the target is purified full-length human HtrA1 (human, UniProt Q92743 23-480). The experiment in a line: cell-based or functional assay.
Sequence of purified full-length human HtrA1 (Q92743 23-480): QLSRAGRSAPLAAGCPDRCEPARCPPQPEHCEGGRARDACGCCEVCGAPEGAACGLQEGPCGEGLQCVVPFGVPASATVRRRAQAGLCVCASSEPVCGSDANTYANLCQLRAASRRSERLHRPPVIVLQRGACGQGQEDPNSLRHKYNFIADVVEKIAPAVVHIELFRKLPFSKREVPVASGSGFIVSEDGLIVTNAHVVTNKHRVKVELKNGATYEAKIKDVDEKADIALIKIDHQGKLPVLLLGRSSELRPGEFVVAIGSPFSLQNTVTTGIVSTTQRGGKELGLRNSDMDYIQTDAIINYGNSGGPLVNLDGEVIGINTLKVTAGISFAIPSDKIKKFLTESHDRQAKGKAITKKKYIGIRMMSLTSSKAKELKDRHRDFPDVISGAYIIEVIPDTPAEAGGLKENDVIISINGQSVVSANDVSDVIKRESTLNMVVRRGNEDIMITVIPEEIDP
The target of experiment [18] is purified full-length murine HtrA1 (murine, UniProt Q9R118 23-480). The experiment in a line: cell-based or functional assay.
Experiment [19] concerns the target T3, murine HtrA4 protease domain (murine, UniProt A2RT60 160-371, limits assumed).
T3 construct: domain: PD (protease domain); also called muHtrA4-PD; murine HtrA4-PD
T3 sequence (looked up): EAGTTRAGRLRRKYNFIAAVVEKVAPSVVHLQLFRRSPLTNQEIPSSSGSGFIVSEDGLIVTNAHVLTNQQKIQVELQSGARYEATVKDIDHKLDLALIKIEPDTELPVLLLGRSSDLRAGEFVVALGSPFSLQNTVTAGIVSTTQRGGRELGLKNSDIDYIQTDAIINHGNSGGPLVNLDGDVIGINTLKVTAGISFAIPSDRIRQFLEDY
The experiment in a line: ELISA, hybridoma clone. A general note: ELISA stands for enzyme-linked immunosorbent assay.

The target in experiment [20] is T4, murine HtrA3 protease domain (murine, UniProt Q9D236 135-350, limits assumed).
T4 construct: domain: PD (protease domain); also called muHtrA3-PD; murine HtrA3-PD
T4 sequence (looked up): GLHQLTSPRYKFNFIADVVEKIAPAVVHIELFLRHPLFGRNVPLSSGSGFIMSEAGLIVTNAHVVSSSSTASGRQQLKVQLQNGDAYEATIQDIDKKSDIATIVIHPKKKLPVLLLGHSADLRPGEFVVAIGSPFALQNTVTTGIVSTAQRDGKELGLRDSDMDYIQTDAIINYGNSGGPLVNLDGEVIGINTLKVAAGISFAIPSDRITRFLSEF
The experiment in a line: ELISA, hybridoma clone.

As a reminder, the Kd is the constant that tells how readily two partners part at equilibrium. In general, koff refers to the rate constant with which the complex falls apart. The term kon denotes the second-order rate constant of association.

T1 sequence (Q92743 other isoform, or with tags, fused parts or gaps limits assumed): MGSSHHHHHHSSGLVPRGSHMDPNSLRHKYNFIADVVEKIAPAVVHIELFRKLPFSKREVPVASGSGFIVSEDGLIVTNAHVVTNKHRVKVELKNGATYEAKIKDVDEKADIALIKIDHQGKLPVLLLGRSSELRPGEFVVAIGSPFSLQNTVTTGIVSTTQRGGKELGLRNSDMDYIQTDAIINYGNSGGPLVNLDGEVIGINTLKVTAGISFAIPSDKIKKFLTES

B1: h15H6.v2 Fab (Fab, V domains shown)
VH: EVQLVQSGAEVKKPGASVKVSCKASGYTFTDSEMHWVRQAPGQGLEWIGGVDPETDGAAYNQKFKGRATITRDTSTSTAYLELSSLRSEDTAVYYCTRGYDYDYALDYWGQGTLVTVSS
VL: DIQMTQSPSSLSASVGDRVTITCRASSSVNFIHWYQQKPGKAPKPLISATSNLASGVPSRFSGSGSGTDFTLTISSLQPEDFATYYCQQWSSNPWTFGQGTKVEIK
notes: Tested as Fab; also called parent; parental Fab
As to B1, in experiment [1], the “IC50, FRET-based H2-Opt blocking assay” value was around 0.39 nM. Moreover, the Kd in experiment [2] turned out to be 0.4 nM; in experiment [3], 0.219 nM; in [4], 0.219 nM; in experiment [5], 0.25 nM; in experiment [6] it was 0.2 nM; in experiment [7] it was 0.4 nM. The Kd in experiment [9] amounted to 0.33 nM; in experiment [10], 0.22 nM; in experiment [11], 0.22 nM. Moreover, the koff in [2] was found to be 0.00021 s⁻¹; in [5] it was 0.00016 s⁻¹; in experiment [6], 0.00012 s⁻¹; in [7], 0.00015 s⁻¹; in experiment [9], 0.00014 s⁻¹; in experiment [10] it was 0.000158 s⁻¹. For the same molecule, the koff in experiment [11] was 0.000158 s⁻¹. Besides, the kon is 490000 M⁻¹ s⁻¹ in experiment [2]; 630000 M⁻¹ s⁻¹ in experiment [5]; 690000 M⁻¹ s⁻¹ in [6]; 360000 M⁻¹ s⁻¹ in [7]; 430000 M⁻¹ s⁻¹ in experiment [9]; 722000 M⁻¹ s⁻¹ in [10]. In experiment [11], this molecule yielded an association rate constant (kon) of 722000 M⁻¹ s⁻¹. Also, the “IC50 FRET (H2-Opt substrate cleavage)” value in experiment [8] came to 0.44 nM. Further, the “IC90 FRET (H2-Opt substrate cleavage)” value in experiment [8] amounted to 1.87 nM. Also, in experiment [8], the “Max inhibition (FRET H2-Opt assay)” value was 91.

B2: h19B12.v1 Fab (Fab, V domains shown)
VH: EVQLVESGGGLVQPGGSLRLSCAASGFTFSSYIMSWVRQAPGKGLEWVAYISNGGGTTYYSDTIKGRFTISRDNSKNTLYLQMNSLRAEDTAVYYCARQNFRSDGSSMDYWGQGTLVTVSS
VL: DIVMTQSPDSLAVSLGERATINCRASESVDSYGKSFMHWYQQKPGQPPKLLIYLASKLESGVPDRFSGSGSGTDFTLTISSLQAEDVAVYYCQQNNEDPYTFGQGTKVEIK
notes: Tested in Fab format
In the case of B2, the Kd in experiment [12] was determined as 24 nM; in experiment [14], 10.7 nM; in experiment [15] it was 7.6 nM; in [16], 6.65 nM. For the same molecule, the off-rate constant (koff) was 0.00345 s⁻¹ in [12], 0.0016 s⁻¹ in experiment [14], 0.00091 s⁻¹ in [15] and 0.00134 s⁻¹ in [16]. Moreover, the kon in experiment [12] turned out to be 144000 M⁻¹ s⁻¹; in [14] it was 150000 M⁻¹ s⁻¹; in experiment [15] it was 120000 M⁻¹ s⁻¹; in experiment [16], 201000 M⁻¹ s⁻¹. In addition, the “fold improvement of KD against m19B12” value in experiment [13] was around 2 fold.

B3: anti-HtrA1 hybridoma antibody clone 15H6 (antibody, V domains shown)
VH: QVQLQQSGAELVRPGASVTLSCKASGYTFTDSEMHWVKQTPVHGLEWIGGVDPETDGAAYNQKFKGKATLTADKSSSTAYMELRSLTSEDSAVYYCTRGYDYDYALDYWGQGTSVTVSS
VL: QIVLSQSPAILSASPGEKVTMTCRASSSVNFIHWYQQKPGSSPKPWISATSNLASGVPPRFSGSGSGTSYSLTISRVEAEDAATYYCQQWSSNPWTFGGGTKLEIK
notes: Murine mIgG2a, from hybridoma or recombinant from 293 cells; also called m15H6
Take B3: in [17], the “IC50, FRET blocking assay, recombinant antibody from 293 cells” value was around 0.7 nM; the “IC50, FRET-based blocking assay (H2-Opt cleavage)” value was determined as 0.7 nM; the “fold improvement of IC50 against YW505.94” value is around 2 fold. Moreover, in [18], the “IC50, FRET-based blocking assay (H2-Opt cleavage)” value worked out at 1.1 nM and the “fold improvement of IC50 against YW505.94” value is around 5 fold. The binding result in [19] is on record as “no binding”. Also, the binding result in experiment [20] is recorded as “no binding”.
